Biological target: Nonhuman Primate CD123
Assay: SPR (Biacore T-100), univalent affinity; antibody captured on the CM4 chip, nonhuman primate CD123 ECD as analyte

Nonhuman Primate CD123, sequence (soluble extracellular domain with His and Avi tags, as listed by the source limits assumed, form in doubt): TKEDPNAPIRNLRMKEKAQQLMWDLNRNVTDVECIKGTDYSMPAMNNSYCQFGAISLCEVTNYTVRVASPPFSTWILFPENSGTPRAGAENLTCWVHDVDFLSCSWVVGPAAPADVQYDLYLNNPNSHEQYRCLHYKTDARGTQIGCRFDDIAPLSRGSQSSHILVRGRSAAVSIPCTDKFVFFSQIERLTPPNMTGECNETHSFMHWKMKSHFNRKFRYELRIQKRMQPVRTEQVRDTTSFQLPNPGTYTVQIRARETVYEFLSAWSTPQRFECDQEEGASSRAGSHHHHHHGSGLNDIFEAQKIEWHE

Kd: 16.1 nM
koff: 0.0023 s⁻¹
kon: 143000 M⁻¹ s⁻¹
B1: 123-10C4 (murine anti-CD123 antibody, IgG2b isotype, Kappa Light Chain) (antibody, V domains shown)
VH: QVQLKESGPGLVAPSQNLSITCTVSGFSLTTYDINWIRQPPGKGLEWLGVIWTGGGTNYNSAFMSRLSISKDNSKSQVFLKMNSLQTDDTAMYYCVRGDTYHYALDFWGQGTSVTVSS
VL: DIVMSQSPSSLAVSAGEKVTMSCKSSQSLLSSGTRKNYLAWYQQKPGQSPKLLIYWASTRESGVPDRFTGSGSGTDFTLTISSVQAEDLAVYYCKQSYILFTFGSGTKLEIK
